# Experimental data taken from article PMC6212770 (Nucleic Acids Research, 2018).
# T1: HermesΔ transposase (UniProt Q25438 79-612, C519S;del497-516)
# T1 sequence: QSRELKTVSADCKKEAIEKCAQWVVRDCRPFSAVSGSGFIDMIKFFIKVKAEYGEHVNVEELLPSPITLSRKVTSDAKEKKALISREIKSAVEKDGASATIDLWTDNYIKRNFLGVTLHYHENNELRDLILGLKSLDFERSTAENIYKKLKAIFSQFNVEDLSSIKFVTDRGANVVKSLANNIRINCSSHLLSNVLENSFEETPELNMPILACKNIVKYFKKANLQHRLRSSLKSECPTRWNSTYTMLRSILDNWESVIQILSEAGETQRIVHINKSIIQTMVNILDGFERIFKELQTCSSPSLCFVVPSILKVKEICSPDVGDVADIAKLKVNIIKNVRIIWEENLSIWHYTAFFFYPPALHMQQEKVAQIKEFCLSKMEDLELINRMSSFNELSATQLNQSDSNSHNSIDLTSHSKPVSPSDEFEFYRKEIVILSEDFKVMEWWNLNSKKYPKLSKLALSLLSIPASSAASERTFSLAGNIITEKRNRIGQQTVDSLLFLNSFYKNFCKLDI
# Assays:
# [1] = biological target: the molecule itself; experiment: crystal structure; HermesΔ co-crystallised with annealed DNA(C:G) or DNA(A:T) oligonucleotides, hanging drops at 4°C, with or without a soak in 8 mM CaCl2 or MnCl2; four structures at 2.85-3.2 Å
# [2] = biological target: T1, HermesΔ transposase; experiment: X-ray crystallography; no metal ions; Complex dialyzed at 4°C in 25 mM HEPES pH 7.5, 0.3 mM TCEP, 0.5 M then 250 mM NaCl, with or without 5 mM MgCl2; DNA:protein 1:1.05 as printed
# [3] = biological target: T1, HermesΔ transposase; experiment: X-ray crystallography; 8 mM Mn2+ soak, 48 h; two Mn2+ in active site, third Mn2+ at N185; Complex dialyzed at 4°C in 25 mM HEPES pH 7.5, 0.3 mM TCEP, 0.5 M then 250 mM NaCl, with or without 5 mM MgCl2; DNA:protein 1:1.05 as printed
binder,measurement,setting,value
"Hermes_(79-612Δ497-516) (enzyme, Musca domestica, UniProt Q25442 79-612, looked up) QSRELKTVSADCKKEAIEKCAQWVVRDCRPFSAVSGSGFIDMIKFFIKVGAEYGEHVNVEELLPSPITLSRKVTSDAKEKKALISREIKSAVEKDGASATIDLWTDNYIKRNFLGVTLHYHENNELRDLILGLKSLDFERSTAENIYKKLKAIFLQFNVEDLSSIKFVTDRGANVVKSLANNIRINCSSHLLSNVLENSFEETPELNVPILACKNIVKYFKKANLQHRLRSSLKSECPTRWNSTYTMLRSILDNWESVIQILSEAGETQRIVHINKSIIQTMVNILDGFERIFKELQTCSSPSLCFVVPSILKVKEICSPDVGDVADIAKLKVNIIKNVRIIWEENLSIWHYTAFFFYPPALHMQQEKVAQIKEFCLSKMEDLELINRMSSFNELSATQLNQSDSNSHNSIDLTSHSKPVSPSDEFEFYRKEIVILSEDFKVMEWWNLNSKKYPKLSKLALSLLSIPASSAASERTFSLAGNIITEKRNRIGQQTVDSLLFLNSFYKNFCKLDI",binding result,[1],binds
DNA(C:G) (dsDNA) DNA 1: GCGTGAC DNA 2: AGAGAACAACAACAAG DNA 3: CTTGTTGTTGTTCTCTGGGTCACGC,binding result,[2],binds
DNA(A:T) (dsDNA) DNA 1: GCGTGAA DNA 2: AGAGAACAACAACAAG DNA 3: CTTGTTGTTGTTCTCTGGTTCACGC,binding result,[3],binds
